According to US20250326828A1 (STAIDSON BEIJING BIOPHARMACEUTICALS, published 2025):
Where two headings read alike, the source gives them in different places.

T1: human GDF15-his (human)
T1 chain: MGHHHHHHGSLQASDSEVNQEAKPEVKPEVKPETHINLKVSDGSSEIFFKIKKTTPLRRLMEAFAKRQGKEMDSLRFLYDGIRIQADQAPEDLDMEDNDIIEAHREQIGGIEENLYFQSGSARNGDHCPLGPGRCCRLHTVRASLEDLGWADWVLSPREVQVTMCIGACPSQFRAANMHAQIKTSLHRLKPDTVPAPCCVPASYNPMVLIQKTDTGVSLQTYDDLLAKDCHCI

T2: human GDF15-hFc (human)
T2 construct: Recombinant hFc-tagged fusion protein expressed in 293F cells
T2 chain: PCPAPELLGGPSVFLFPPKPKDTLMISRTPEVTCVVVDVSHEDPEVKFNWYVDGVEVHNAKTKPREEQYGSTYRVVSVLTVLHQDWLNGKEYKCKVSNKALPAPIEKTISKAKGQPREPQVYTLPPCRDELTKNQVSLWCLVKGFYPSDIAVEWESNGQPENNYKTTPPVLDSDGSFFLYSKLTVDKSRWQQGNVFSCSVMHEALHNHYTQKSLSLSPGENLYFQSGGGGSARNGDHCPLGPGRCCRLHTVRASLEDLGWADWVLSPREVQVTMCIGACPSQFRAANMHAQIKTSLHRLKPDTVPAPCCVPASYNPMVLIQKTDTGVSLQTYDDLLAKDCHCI

T3: mouse GDF15-hFc (mouse)
T3 chain: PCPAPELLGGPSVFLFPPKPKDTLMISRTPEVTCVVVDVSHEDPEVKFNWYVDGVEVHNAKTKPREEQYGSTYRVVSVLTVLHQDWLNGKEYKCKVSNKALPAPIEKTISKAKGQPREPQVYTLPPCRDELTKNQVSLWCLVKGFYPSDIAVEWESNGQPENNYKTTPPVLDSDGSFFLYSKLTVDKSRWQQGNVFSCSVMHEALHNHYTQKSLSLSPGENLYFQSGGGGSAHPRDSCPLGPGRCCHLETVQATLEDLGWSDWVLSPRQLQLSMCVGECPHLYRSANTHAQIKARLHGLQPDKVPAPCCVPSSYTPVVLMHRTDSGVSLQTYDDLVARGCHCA

T4: rhesus monkey GDF15-hFc (rhesus monkey)
T4 chain: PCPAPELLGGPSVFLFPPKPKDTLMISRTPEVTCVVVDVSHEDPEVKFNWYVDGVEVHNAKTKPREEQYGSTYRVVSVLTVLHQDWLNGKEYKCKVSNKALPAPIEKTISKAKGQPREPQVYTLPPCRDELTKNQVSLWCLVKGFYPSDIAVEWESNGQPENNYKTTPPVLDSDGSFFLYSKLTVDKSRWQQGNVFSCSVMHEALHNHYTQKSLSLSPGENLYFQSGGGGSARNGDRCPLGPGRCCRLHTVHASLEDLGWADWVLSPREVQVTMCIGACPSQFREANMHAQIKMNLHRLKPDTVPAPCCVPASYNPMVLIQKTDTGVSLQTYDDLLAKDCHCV


Columns and labels:
human GDF15-his [1] = molecular target: T1, human GDF15-his; experiment: cell-based or functional assay
human GDF15-his [2] = molecular target: T1, human GDF15-his; experiment: ELISA; antibody coated, human GDF15-his titrated, anti-his-HRP detection
Procedure: (§1) ELISA binding assay: The purified monoclonal antibody was subjected to a binding assay with human GDF15-his protein. The binding assay was designed to characterize the binding activity of the anti-GDF15 antibody. Briefly, a 96-well plate was coated with anti-GDF15 antibody (200 ng/well) and incubated for 1 hour at 37° C. The plates were washed with PBST and then blocked for 1 hour at room temperature using 1% BSA. Then 100 µl/well of gradient-diluted human GDF15-his solution (dose range 0-50 μg/ml) was added into plates. After incubation, 100 μl of anti-his tag secondary antibody (anti-his-HRP (1:2000), Bersee, cat #BHR790) was added to each well. Finally, the TMB solution (100 μl/well) was added. 2M H₂SO₄ was used to stop the reaction. The OD450 was measured, and the binding curves were generated by PRISM software to analyze the affinity of candidate antibodies to human GDF15 antigen, and EC₅₀ value were calculated.

human GDF15-hFc [3] = molecular target: T2, human GDF15-hFc; experiment: competition ELISA; GFRAL-his coated, antibody titrated against human GDF15-hFc, anti-human IgG-HRP detection
Procedure: (§2) The ELISA assay was performed to measure the inhibitory activity of anti-GDF15 antibodies in concentration gradients to block GDF15 binding to GFRAL receptor. IC₅₀ values were used as a measure for neutralizing activity of candidate molecules. Briefly, 96-well plates were coated with 100 ng/well of GFRAL-his protein (SEQ ID NO: 74), and incubated for 1 h at 37° C. The plates were washed with PBST and then blocked for 1 hour at 37° C. with 1% BSA. Gradient-diluted antibodies (dose range 0˜10 μg/ml) was added into each well, immediately followed by equal volume of human GDF15-hFc protein ([…]). After incubation and washing, 100 μl of anti-human IgG secondary antibody (goat anti-human IgG-HRP, Sigma, A8667) was added to each well. Finally, TMB solution (100 μl/well) was added. 2M H₂SO₄ was used to stop the reaction. The OD450 was measured and the binding curve was generated by PRISM to calculate the IC₅₀ value.

human GDF15-hFc [4] = molecular target: T2, human GDF15-hFc; experiment: competition ELISA as in Example 2; GFRAL-his coated, antibody titrated against human GDF15-hFc
Procedure: as §2

human GDF15-his [5] = molecular target: T1, human GDF15-his; experiment: ELISA as in Example 2: plate coated with the antibody, graded human GDF15-his, anti-his-HRP, OD450; the sheet's x axis reads 'Log GDF15 Antibody (nM)'
Procedure: as §1

human GDF15-his [6] = molecular target: T1, human GDF15-his; experiment: cell-based or functional assay
mouse GDF15-hFc = molecular target: T3, mouse GDF15-hFc; experiment: SPR, Biacore 8K; antibody on CM5 chip
Procedure: (§3) The binding affinity of anti-GDF15 antibodies for human GDF15, rhesus monkey GDF15, mouse GDF15 were characterized using Biacore 8K (GE). The anti-GDF15 antibodies were stabilized on sensor chip CM5. The binding affinity of antibody for GDF15 proteins from different species at various concentrations was measured. Using the SPR technology, the association and dissociation rates were measured, and binding affinity was determined.

rhesus monkey GDF15-hFc = molecular target: T4, rhesus monkey GDF15-hFc; experiment: SPR, Biacore 8K; antibody on CM5 chip
Procedure: as §3

human GDF15-hFc [7] = molecular target: T2, human GDF15-hFc; experiment: SPR, Biacore 8K; antibody on CM5 chip
Procedure: as §3

human GDF15-his [8] = molecular target: T1, human GDF15-his; experiment: cell-based or functional assay
human GDF15-his [9] = molecular target: T1, human GDF15-his; experiment: ELISA as in Example 2: plate coated with the antibody, graded human GDF15-his, anti-his-HRP, OD450; the sheet's x axis reads 'Log GDF15 antibody (nM)'
Procedure: as §1

Binder | IC50 (human GDF15-hFc [4]) | EC50 (read off the curve) (human GDF15-his [5]) | IC50 (read off the curve), SRE-luciferase signal in 293T-GFRAL/RET-Luc cells with human GDF15-his (human GDF15-his [8]) | EC50 (read off the curve) (human GDF15-his [9]) | other results
GDF-R36-rabIg1 (antibody, V domains shown, Full-length rabbit antibody: rabbit IgG1 heavy constant and rabbit light constant; also called GDF15-R36-rabIg1) VH: QSLEESGGRLVTPGTPLTLTCTASGFSLSNYYMSWVRQAPGEGLEWIGMISFSGTTYATWAKGRFTISKTSTTVDLKITSPTTEDTATYFCARVVYAGWTYPLGIWGPGTLVTVSS VL: DPVLTQTPASVSEPVGGTVTIKCQASQSISSVLSWYQQKPGQPPKVLIYEASTLASGVPSRFKGSGSGTDFTLTISDLECADAATYYCQANYDVYNYGNPFGGGTEVVVK |  |  |  |  | IC50, 293T-GFRAL/RET-Luc SRE luciferase reporter cells stimulated with human GDF15-his (15 ng/ml) (human GDF15-his [1]): 0.17 nM; EC50 (human GDF15-his [2]): 44.4 nM; IC50 (human GDF15-hFc [3]): 1.44 nM
hum_R37-7 (antibody, V domains shown, Tested in human IgG1 format) VH: EVQLVESGGGLVKPGGSLRLSCAASGFSLSNYYMSWVRQAPGKGLEWIGMISFSGTTYATWAKGRFTISKDSSKNTVYLQINSLKTEDTAVYFCARVVYAGWTYPLGIWGQGTLVTVSS VL: DIQMTQSPSSLSASVGDRVTITCQASQSISSVLSWYQQKPGKPPKALIYEASILASGVPSRFSGSGSGTDFTLTISSLQPEDFATYYCQANYDVYNYGNPFGGGTKVEIK | 2.31 nM | ~80 nM |  |  | IC50 (read off the curve), SRE-luciferase signal in 293T-GFRAL/RET-Luc cells with human GDF15-his (human GDF15-his [6]): ~0.1 nM
hum_R37-8 (antibody, V domains shown, Tested in human IgG1 format) VH: EVQLVESGGGLVKPGGSLRLSCAASGFSLSNYYMSWVRQAPGKGLEWIGMISFSGTTYATWAKGRFTISKDSSTVYLQINSLKTEDTAVYFCARVVYAGWTYPLGIWGQGTLVTVSS VL: DIQMTQSPSSLSASVGDRVTITCQASQSISSVLSWYQQKPGKPPKALIYEASILASGVPSRFSGSGSGTDFTLTISSLQPEDFATYYCQANYDVYNYGNPFGGGTKVEIK | 1.59 nM | ~80 nM |  |  | Kd (mouse GDF15-hFc): 101 nM; koff (mouse GDF15-hFc): 0.0017 s⁻¹; kon (mouse GDF15-hFc): 16800 M⁻¹ s⁻¹; Kd (rhesus monkey GDF15-hFc): 1.09 nM; koff (rhesus monkey GDF15-hFc): 0.002 s⁻¹; kon (rhesus monkey GDF15-hFc): 1.84e+06 M⁻¹ s⁻¹; Kd (human GDF15-hFc [7]): 0.607 nM; koff (human GDF15-hFc [7]): 8.46e-05 s⁻¹; kon (human GDF15-hFc [7]): 139000 M⁻¹ s⁻¹; IC50 (read off the curve), SRE-luciferase signal in 293T-GFRAL/RET-Luc cells with human GDF15-his (human GDF15-his [6]): ~0.1 nM
hum_R37-9 (antibody, V domains shown, Tested in human IgG1 format) VH: EVQLVESGGGLVKPGGSLRLSCAASGFSLSNYYMSWVRQAPGKGLEWIGMISFSGTTYATWAKGRFTISKDDSKNTVYLQINSLKTEDTAVYFCARVVYAGWTYPLGIWGQGTLVTVSS VL: DIQMTQSPSSLSASVGDRVTITCQASQSISSVLSWYQQKPGKPPKALIYEASILASGVPSRFSGSGSGTDFTLTISSLQPEDFATYYCQANYDVYNYGNPFGGGTKVEIK | 1.82 nM | ~80 nM | ~0.2 nM |  | 
hum_R37-13 (antibody, V domains shown, Tested in human IgG1 format) VH: EVQLVESGGGLVKPGGSLRLSCAASGFSLSNYYMSWVRQAPGKGLEWIGMISFSGTTYATWAKGRFTISKDSSKNTVYLQINSLKTEDTAVYFCARVVYAGWTYPLGIWGQGTLVTVSS VL: DIQMTQSPSSLSASVGDRVTITCQASQSISSVLSWYQQKPGKPPKLLIYEASILASGVPSRFSGSGSGTDFTLTISSLQPEDFATYYCQANYDVYNYGNPFGGGTKVEIK | 2.06 nM |  | ~0.1 nM | ~200 nM | 
hum_R37-11 (antibody, V domains shown, Tested in human IgG1 format) VH: EVQLVESGGGLVKPGGSLRLSCAASGFSLSNYYMSWVRQAPGKGLEWVGMISFSGTTYATWAKGRFTISRDDSKNTVYLQINSLKTEDTAVYFCARVVYAGWTYPLGIWGQGTLVTVSS VL: DIQMTQSPSSLSASVGDRVTITCQASQSISSVLSWYQQKPGKPPKALIYEASILASGVPSRFSGSGSGTDFTLTISSLQPEDFATYYCQANYDVYNYGNPFGGGTKVEIK | 1.9 nM | ~80 nM | ~0.1 nM |  | 
hum_R37-14 (antibody, V domains shown, Tested in human IgG1 format) VH: EVQLVESGGGLVKPGGSLRLSCAASGFSLSNYYMSWVRQAPGKGLEWIGMISFSGTTYATWAKGRFTISKDSSTVYLQINSLKTEDTAVYFCARVVYAGWTYPLGIWGQGTLVTVSS VL: DIQMTQSPSSLSASVGDRVTITCQASQSISSVLSWYQQKPGKPPKLLIYEASILASGVPSRFSGSGSGTDFTLTISSLQPEDFATYYCQANYDVYNYGNPFGGGTKVEIK | 1.51 nM |  | ~0.2 nM | ~200 nM | 
hum_R37-15 (antibody, V domains shown, Tested in human IgG1 format) VH: EVQLVESGGGLVKPGGSLRLSCAASGFSLSNYYMSWVRQAPGKGLEWIGMISFSGTTYATWAKGRFTISKDDSKNTVYLQINSLKTEDTAVYFCARVVYAGWTYPLGIWGQGTLVTVSS VL: DIQMTQSPSSLSASVGDRVTITCQASQSISSVLSWYQQKPGKPPKLLIYEASILASGVPSRFSGSGSGTDFTLTISSLQPEDFATYYCQANYDVYNYGNPFGGGTKVEIK | 1.59 nM |  | ~0.2 nM | ~200 nM | 
hum_R37-18 (antibody, V domains shown, Tested in human IgG1 format) VH: EVQLVESGGGLVKPGGSLRLSCAASGFSLSNYYMSWVRQAPGKGLEWVGMISFSGTTYATWAKGRFTISRDDSKNTLYLQMNSLKTEDTAVYFCARVVYAGWTYPLGIWGQGTLVTVSS VL: DIQMTQSPSSLSASVGDRVTITCQASQSISSVLSWYQQKPGKPPKLLIYEASILASGVPSRFSGSGSGTDFTLTISSLQPEDFATYYCQANYDVYNYGNPFGGGTKVEIK | 0.88 nM |  | ~0.2 nM | ~200 nM | 
GDF-R31-rabIg1 (antibody, V domains shown, Full-length rabbit antibody: rabbit IgG1 heavy constant (pTTa1-rab Ig1-H) and rabbit light constant (pTTa1-rab-CLB4); also called GDF15-R31-rabIg1) VH: QQLKESGGRLVTPGTPLTLTCTVSGFSLSDYYMSWVRQAPGKGLEWIGDIYGGSGTTDYASWVKGRFTISKTSTTVDLRIASPTTEDTATYFCGRGITADIWGPGTLVTVSL VL: DIVLTQTPASVEAAVGGTVTIKCQASQSISSYLAWYQQKPGQPPKLLIYKASTLASGVPSRFKGSGSGTEFTLTISDLECADAATYYCRCIYGDSYGAAFGGGTEVVVQ |  |  |  |  | EC50 (human GDF15-his [2]): 66.5 nM; IC50 (human GDF15-hFc [3]): 2.28 nM
